The results in this text go back to patent US20180016346A1 (Kyowa Kirin, published 2018).

Assay [1] addresses T1, human prostate specific membrane antigen (hPSMA), membrane form on cells (human, UniProt Q04609 1-750).
T1 construct: endogenous on LNCaP clone FGC cells; also called membrane hPSMA
Put plainly: flow cytometry on hPSMA/L929 cells (FIG. 2). As for the experimental part:
(§1) The cells were suspended in a staining buffer [PBS containing 0.1% NaN₃ and 1% FBS] at a concentration of 1×10⁶ cells/mL, and dispensed in a round-bottom 96-well plate (manufactured by Becton Dickinson) by 100 μL/well. After the centrifugation (2000 rpm, 4° C., 2 minutes), each antibody obtained in Example 7 was added to the pellet obtained by removing the supernatant, and suspended, and then left stand at ice temperature for 30 minutes.
(§2) After the further centrifugation (2000 rpm, 4° C., 2 minutes), the pellet obtained by removing the supernatant was washed twice with 200 μL/well of the staining buffer. Thereafter, 1 μg/mL of RPE fluorescently labeled mouse anti-human antibody (hinge region) clone 4E3 antibody (manufactured by Southern Bioblot) was added thereto by 50 μL/well and incubated at ice temperature for 30 minutes. After washing twice with the staining buffer, the cells were suspended in 200 μL/well of the staining buffer, and the fluorescence intensity of each cell was measured with the flow cytometer FACSCANTO II (manufactured by Becton Dickinson). The obtained results are illustrated in FIG. 2 and FIG. 3.
hPSMA/L929 cells were stained with anti-TRAILR2 monoclonal antibody E11 antibody, anti-hPSMA monoclonal antibody PI134 antibody, or hTRAILR2-hPSMA bispecific antibody E11-CH1-PI101VH antibody, E11-CH1-PN7VH antibody or E11-CH1-PN170VH antibody. The obtained results are illustrated in FIG. 2.

For assay [2], the target named is T2, human TRAILR2 (tumor necrosis factor-related apoptosis inducing ligand receptor 2) (human, UniProt O14763 56-440).
T2 construct: whole, on cells; The hTRAILR2/L929 cells are only cited from WO 2002/094880, and the construct expressed on them is not described here; On PC3 and LNCaP clone FGC cells the receptor is endogenous; also called hTRAILR2; death receptor 5
Kind of assay: flow cytometry on hTRAILR2/L929 cells (FIG. 3). As for the experimental part: as §1
as §2, with “3. […]” for “3.”

The target in assay [3] is T1, human prostate specific membrane …. Put plainly: flow cytometry.

T1 sequence (Q04609 whole entry): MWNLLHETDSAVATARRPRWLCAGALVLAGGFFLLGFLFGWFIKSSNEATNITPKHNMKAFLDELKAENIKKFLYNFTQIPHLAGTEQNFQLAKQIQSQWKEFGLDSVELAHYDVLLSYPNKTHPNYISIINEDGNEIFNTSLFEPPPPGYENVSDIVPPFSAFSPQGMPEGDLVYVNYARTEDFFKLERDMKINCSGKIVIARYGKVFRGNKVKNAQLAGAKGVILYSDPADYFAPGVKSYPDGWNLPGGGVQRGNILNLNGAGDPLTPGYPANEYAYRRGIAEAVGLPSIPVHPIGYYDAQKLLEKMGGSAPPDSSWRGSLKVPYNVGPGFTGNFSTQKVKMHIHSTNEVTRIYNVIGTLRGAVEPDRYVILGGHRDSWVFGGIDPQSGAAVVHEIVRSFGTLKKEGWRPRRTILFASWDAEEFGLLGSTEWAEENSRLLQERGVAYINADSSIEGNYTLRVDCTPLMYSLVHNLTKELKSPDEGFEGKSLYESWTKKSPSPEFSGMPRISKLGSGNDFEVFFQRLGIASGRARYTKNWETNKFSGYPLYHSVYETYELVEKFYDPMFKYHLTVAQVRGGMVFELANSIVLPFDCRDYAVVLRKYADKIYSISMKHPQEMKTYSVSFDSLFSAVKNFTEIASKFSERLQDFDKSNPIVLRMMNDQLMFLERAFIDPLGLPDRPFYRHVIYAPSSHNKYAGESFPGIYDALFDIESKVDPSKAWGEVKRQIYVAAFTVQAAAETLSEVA

B1: anti-hPSMA monoclonal antibody PI134 antibody (antibody, human IgG1, V domains shown)
VH: QVQLVQSGAEVKKPGASVKVSCKASGYTFTTYDINWVRQATGQGLEWMGWMNPNNGYTGYAQKFQGRVTMTRNTSISTAYMELSSLRSEDTAVYYCARTNWVYWYFDLWGRGTLVTVSS
VL: EIVLTQSPATLSLSPGERATLSCRASQSVSSFLAWYQQKPGQAPRLLIYDASNRATGIPARFSGSGSGTDFTLTISSLEPEDFAVYYCQQRSNWPLTFGPGTKVDIKR
notes: Its VL is the same as that of the E11 antibody
On to B1, for which the results for the binding result in assay [1] and in assay [2] were “binds” and “no binding”, respectively.

B2: hTRAILR2-hPSMA bispecific antibody fragment E11-CH1-PN7VH Fab (bispecific antibody)
heavy: QLQLQESGPGLVKPSETLSLTCTVSGGSIISKSSYWGWIRQPPGKGLEWIGSIYYSGSTFYNPSLKSRVTISVDTSKNQFSLKLSSVTAADTAVYYCARLTVAEFDYWGQGTLVTVSSASTKGPSVFPLAPCSRSTSESTAALGCLVKDYFPEPVTVSWNSGALTSGVHTFPAVLQSSGLYSLSSVVTVPSSSLGTKTYTCNVDHKPSNTKVDKRVEVQLVQSGAEVKKPGASVKVSCKASGYTFTTYDINWVRQATGQGLEWMGWMNPNSGYTGYAQKFQGRVTMTRDTSISTAYMELSSLRSEDTAVYYCARTNWESWYFDLWGRGTLVTVSSASTKGPSVFPLAPCSRSTSESTAALGCLVKDYFPEPVTVSWNSGALTSGVHTFPAVLQSSGLYSLSSVVTVPSSSLGTKTYTCNVDHKPSNTKVDKRVDYKDDDDKHHHHHH
VL: B1 VL
notes: The hinge region is deleted from E11-CH1-PN7VH F(ab′)2; The light chains carry E11 VL, as in the F(ab′)2
As to B2, the binding result in assay [3] is “binds”.

B3: hTRAILR2-hPSMA heterobispecific antibody E11_PN7 Hetero antibody (bispecific antibody, human IgG1)
heavy 1: not shown
heavy 2: not shown
VL: B1 VL
notes: also called hE11_PN7 Hetero antibody
On to B3, for which the binding result in assay [3] is “binds”.
